Results as given in the supplement of paper PMC9112550, “Optimization of the antimicrobial peptide Bac7 by deep mutational scanning” (BMC Biology, 2022).

Tested on: Escherichia coli TOP10
Assay: shrunken log2 fold change of peptide-encoding DNA abundance (4.5 h post-induction vs induction); higher = less antimicrobial activity (less host growth inhibition)
Details: time post-induction: 4.5 h; library: site-saturation at positions 5, 18, 19, 20
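Also: peptides expressed intracellularly from a pBAD plasmid library in pooled LB shake-flask culture, induced with 0.3% L-arabinose, DNA abundance read by NGS, three biological replicates, DESeq2 with apeglm shrinkage.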

| Sequence | shrunken log2 fold change |
| --- | --- |
| RRIRSRPPRLPRPRPRPQNTPRP | -0.522 |
| RRIRARPPRLPRPRPRPYRVPRP | -0.211 |
| RRIRYRPPRLPRPRPRPKAMPRP | -0.0317 |
| RRIRQRPPRLPRPRPRPSEFPRP | -0.0736 |
| RRIRVRPPRLPRPRPRPQPEPRP | 0.23 |
| RRIRFRPPRLPRPRPRPACKPRP | -0.0419 |
| RRIRQRPPRLPRPRPRPIREPRP | -0.0225 |
| RRIRVRPPRLPRPRPRPYYPPRP | -0.414 |
| RRIRIRPPRLPRPRPRPEGPPRP | -0.0796 |
| RRIRNRPPRLPRPRPRPNRNPRP | -0.91 |
| RRIRYRPPRLPRPRPRPQYYPRP | -1.52 |
| RRIRPRPPRLPRPRPRPIIDPRP | -0.297 |
| RRIRVRPPRLPRPRPRPRKPPRP | 0.0947 |
| RRIRSRPPRLPRPRPRPTGCPRP | 0.159 |
| RRIRPRPPRLPRPRPRPNFFPRP | 0.323 |
| RRIRNRPPRLPRPRPRPTANPRP | 0.0124 |
| RRIRGRPPRLPRPRPRPWWVPRP | 0.0839 |
| RRIRHRPPRLPRPRPRPQLHPRP | -0.169 |
| RRIRKRPPRLPRPRPRPYPMPRP | -0.2 |
| RRIRKRPPRLPRPRPRPKPVPRP | 0.39 |
| RRIRMRPPRLPRPRPRPCRHPRP | -0.0252 |
| RRIRGRPPRLPRPRPRPEVRPRP | 0.919 |
| RRIRQRPPRLPRPRPRPLDRPRP | 0.0981 |
| RRIRYRPPRLPRPRPRPSSKPRP | -1 |
| RRIRMRPPRLPRPRPRPDKSPRP | 0.283 |

| Sequence | shrunken log2 fold change |
| --- | --- |
| RRIRYRPPRLPRPRPRPLPMPRP | -0.624 |
| RRIRARPPRLPRPRPRPAMKPRP | 0.0417 |
| RRIRLRPPRLPRPRPRPGMSPRP | 0.0159 |
| RRIRVRPPRLPRPRPRPTQSPRP | 0.332 |
| RRIRPRPPRLPRPRPRPYNGPRP | -0.656 |
| RRIRYRPPRLPRPRPRPETWPRP | 0.093 |
| RRIRSRPPRLPRPRPRPPSNPRP | -0.00786 |
| RRIRRRPPRLPRPRPRPPVDPRP | 0.241 |
| RRIRARPPRLPRPRPRPKHFPRP | 4.03 |
| RRIRSRPPRLPRPRPRPMPDPRP | 0.235 |
| RRIRNRPPRLPRPRPRPVIVPRP | -0.112 |
| RRIRVRPPRLPRPRPRPAAHPRP | 0.0619 |
| RRIRWRPPRLPRPRPRPYEKPRP | -0.139 |
| RRIRHRPPRLPRPRPRPWFDPRP | -0.0263 |
| RRIRHRPPRLPRPRPRPFSEPRP | -0.591 |
| RRIRQRPPRLPRPRPRPHNAPRP | -0.0184 |
| RRIRKRPPRLPRPRPRPSRWPRP | 0.639 |
| RRIRGRPPRLPRPRPRPHVVPRP | 0.1 |
| RRIRYRPPRLPRPRPRPKFLPRP | -0.139 |
| RRIRGRPPRLPRPRPRPDAYPRP | 0.829 |
| RRIRPRPPRLPRPRPRPPRHPRP | 0.278 |
| RRIRWRPPRLPRPRPRPHKNPRP | -0.13 |
| RRIRCRPPRLPRPRPRPTDAPRP | 0.215 |
| RRIRSRPPRLPRPRPRPGEWPRP | -0.0156 |
| RRIRGRPPRLPRPRPRPLQYPRP | -0.251 |

| Sequence | shrunken log2 fold change |
| --- | --- |
| RRIRLRPPRLPRPRPRPECNPRP | -0.0178 |
| RRIRMRPPRLPRPRPRPLIYPRP | -0.0335 |
| RRIRERPPRLPRPRPRPPNSPRP | -0.148 |
| RRIRWRPPRLPRPRPRPVWVPRP | 0.257 |
| RRIRSRPPRLPRPRPRPANLPRP | -0.0937 |
| RRIRMRPPRLPRPRPRPMQNPRP | 0.365 |
| RRIRYRPPRLPRPRPRPYPQPRP | -0.466 |
| RRIRWRPPRLPRPRPRPPWVPRP | -0.00745 |
| RRIRFRPPRLPRPRPRPYAHPRP | -0.18 |
| RRIRMRPPRLPRPRPRPPHAPRP | 1.65 |
| RRIRHRPPRLPRPRPRPLEDPRP | 0.0039 |
| RRIRSRPPRLPRPRPRPAWAPRP | 0.333 |
| RRIRLRPPRLPRPRPRPYYWPRP | -0.172 |
| RRIRWRPPRLPRPRPRPEPWPRP | 0.725 |
| RRIRFRPPRLPRPRPRPRNWPRP | 0.19 |
| RRIRTRPPRLPRPRPRPCQNPRP | 0.031 |
| RRIRWRPPRLPRPRPRPVTTPRP | -0.0727 |
| RRIRFRPPRLPRPRPRPVFSPRP | -0.293 |
| RRIRGRPPRLPRPRPRPPESPRP | 0.873 |
| RRIRYRPPRLPRPRPRPVCTPRP | -0.569 |
| RRIRKRPPRLPRPRPRPGNNPRP | -0.107 |
| RRIRKRPPRLPRPRPRPAQKPRP | -0.0358 |
| RRIRGRPPRLPRPRPRPTSVPRP | 0.197 |
| RRIRTRPPRLPRPRPRPPTDPRP | 0.0638 |
| RRIRFRPPRLPRPRPRPTGWPRP | 0.456 |

| Sequence | shrunken log2 fold change |
| --- | --- |
| RRIRARPPRLPRPRPRPCIHPRP | -0.438 |
| RRIRLRPPRLPRPRPRPWHMPRP | 0.041 |
| RRIRFRPPRLPRPRPRPISCPRP | -0.038 |
| RRIRYRPPRLPRPRPRPQQEPRP | -0.0075 |
| RRIRVRPPRLPRPRPRPEKMPRP | -0.3 |
| RRIRMRPPRLPRPRPRPTYIPRP | -1.08 |
| RRIRERPPRLPRPRPRPKLKPRP | -0.387 |
| RRIRWRPPRLPRPRPRPKYAPRP | -0.0417 |
| RRIRLRPPRLPRPRPRPFVTPRP | -0.303 |
| RRIRQRPPRLPRPRPRPATRPRP | 0.616 |
| RRIRTRPPRLPRPRPRPHNRPRP | -0.0489 |
| RRIRIRPPRLPRPRPRPFWMPRP | -0.192 |
| RRIRRRPPRLPRPRPRPFIRPRP | -0.326 |
| RRIRNRPPRLPRPRPRPRLWPRP | 0.0283 |
| RRIRVRPPRLPRPRPRPMMEPRP | 0.00705 |
| RRIRRRPPRLPRPRPRPPPGPRP | 1.05 |
| RRIRKRPPRLPRPRPRPQEFPRP | -0.0241 |
| RRIRWRPPRLPRPRPRPMPKPRP | 0.115 |
| RRIRWRPPRLPRPRPRPLDNPRP | -0.23 |
| RRIRHRPPRLPRPRPRPFHWPRP | -0.0742 |
| RRIRCRPPRLPRPRPRPRDAPRP | 0.56 |
| RRIRFRPPRLPRPRPRPQDAPRP | -0.0849 |
| RRIRFRPPRLPRPRPRPTFHPRP | -0.385 |
| RRIRIRPPRLPRPRPRPKCDPRP | -0.352 |
| RRIRYRPPRLPRPRPRPYRDPRP | -0.0114 |

| Sequence | shrunken log2 fold change |
| --- | --- |
| RRIRQRPPRLPRPRPRPYGPPRP | -0.415 |
| RRIRYRPPRLPRPRPRPTNAPRP | -0.24 |
| RRIRVRPPRLPRPRPRPSTLPRP | -0.166 |
| RRIRPRPPRLPRPRPRPQVWPRP | 0.202 |
| RRIRVRPPRLPRPRPRPATCPRP | -0.164 |
| RRIRFRPPRLPRPRPRPIPMPRP | -0.428 |
| RRIRHRPPRLPRPRPRPAEAPRP | -0.0896 |
| RRIRVRPPRLPRPRPRPGVVPRP | 0.43 |
| RRIRYRPPRLPRPRPRPQLAPRP | -0.228 |
| RRIRARPPRLPRPRPRPTLRPRP | 0.148 |
| RRIRDRPPRLPRPRPRPWETPRP | 0.192 |
| RRIRYRPPRLPRPRPRPCLTPRP | -0.125 |
| RRIRERPPRLPRPRPRPYCKPRP | 0.0936 |
| RRIRHRPPRLPRPRPRPWTNPRP | -0.101 |
| RRIRNRPPRLPRPRPRPLTGPRP | 0.0323 |
| RRIRLRPPRLPRPRPRPQTSPRP | -0.106 |
| RRIRERPPRLPRPRPRPSKLPRP | -1.06 |
| RRIRMRPPRLPRPRPRPECKPRP | 0.0491 |
| RRIRARPPRLPRPRPRPFSWPRP | -0.0923 |
| RRIRRRPPRLPRPRPRPRSYPRP | 0.0753 |
| RRIRMRPPRLPRPRPRPGTGPRP | 0.596 |
| RRIRQRPPRLPRPRPRPDKSPRP | -0.0319 |
| RRIRGRPPRLPRPRPRPGFAPRP | 0.831 |
| RRIRPRPPRLPRPRPRPSYVPRP | -0.127 |
| RRIRQRPPRLPRPRPRPDSTPRP | 0.139 |
